Source: patent US20250340622A1 (AstraZeneca / MedImmune, published 2025)

Experiments:
Experiment in all cases: cell-based or functional assay
[1] = target: RSV B F protein variant I206M:Q209R (RSV B)
[2] = target: RSV B F protein variant L203I (RSV B)
[3] = target: RSV B F protein variant K65Q:K68N (RSV B)
[4] = target: RSV B F protein variant K68Q:S211N (RSV B)
[5] = target: RSV B F protein variant N201S (RSV B)
[6] = target: RSV B F protein variant K68Q:I206M:Q209R (RSV B)
[7] = target: RSV B F protein variant N201T:I206M:Q209R (RSV B)
[8] = target: RSV B F protein variant K68N (RSV B)
[9] = target: RSV B F protein variant I64T:K68E:I206M:Q209R (RSV B)
[10] = target: RSV B F protein variant S211N (RSV B)
[11] = target: RSV B F protein variant I206M:Q209R:S211N (RSV B)
[12] = target: RSV B F protein variant N208D (RSV B, strain B9320)
[13] = target: RSV B F protein variant N208S (RSV B)
[14] = target: RSV B F protein variant K68N:N201S (RSV B, strain B9320)
[15] = target: RSV B F protein variant K68N:N208S (RSV B, strain B9320)

B1: nirsevimab (antibody, human IgG1, kappa, V domains shown)
VH: QVQLVQSGAEVKKPGSSVMVSCQASGGLLEDYIINWVRQAPGQGPEWMGGIIPVLGTVHYGPKFQGRVTITADESTDTAYMELSSLRSEDTAMYYCATETALVVSETYLPHYFDNWGQGTLVTVSS
VL: DIQMTQSPSSLSAAVGDRVTITCQASQDIVNYLNWYQQKPGKAPKLLIYVASNLETGVPSRFSGSGSGTDFSLTISSLQPEDVATYYCQQYDNLPLTFGGGTKVEIKR
- fold change in susceptibility to nirsevimab [1]: 0.23 fold
- fold reduced susceptibility to nirsevimab neutralization (recombinant RSV neutralization susceptibility assay) [2]: 3000 fold
- fold reduced susceptibility to nirsevimab neutralization (recombinant RSV neutralization susceptibility assay) [3]: 1240 fold
- fold reduced susceptibility to nirsevimab neutralization (recombinant RSV neutralization susceptibility assay) [4]: 35.7 fold
- fold reduced susceptibility to nirsevimab neutralization (recombinant RSV neutralization susceptibility assay) [5]: 127 fold
- fold reduced susceptibility to nirsevimab neutralization (recombinant RSV neutralization susceptibility assay) [6]: 46.4 fold
- fold reduced susceptibility to nirsevimab neutralization (recombinant RSV neutralization susceptibility assay) [7]: > 418 fold
- fold reduced susceptibility to nirsevimab neutralization (recombinant RSV neutralization susceptibility assay) [8]: 29.9 fold
- fold reduced susceptibility to nirsevimab neutralization (recombinant RSV neutralization susceptibility assay) [9]: > 447 fold
- fold change in susceptibility to nirsevimab [10]: 1.2 fold
- fold change in susceptibility to nirsevimab [11]: 0.5 fold
- fold reduced susceptibility to nirsevimab (recombinant RSV B variant) [12]: > 90000 fold
- fold reduced susceptibility to nirsevimab (recombinant RSV B variant) [13]: > 24000 fold
- fold reduced susceptibility to nirsevimab neutralization (recombinant RSV neutralization susceptibility assay) [13]: > 387 fold
- fold reduced susceptibility to nirsevimab (recombinant RSV B variant) [14]: > 13000 fold
- fold reduced susceptibility to nirsevimab (recombinant RSV B variant) [15]: > 90000 fold
